Experimental data reported in publication PMC4650419 (Cell Research, 2015).
Numbering of substitutions follows the chain as printed.

B1: mouse monoclonal antibody 2E6 (IgG1) (antibody, V domains shown)
VH: QVQLKGSGPGLVAPSQSLSITCTVSGFSLTGYGVNWVRQPPGKGLEWLGMIWGDGSTDYNSALKSRLSISKDNSKSQVFLKMNSLQTDDTARYYCARVGDYGDYFDYWGQGTTLTVSS
VL: DIQMTQSPASLSASVGETVTITCRASENIYSYLAWYQQKQGKSPQLLVYNAKTLAEGVPSRFSGSGSGTQFSLKINSLQPEDFGSYYCQHHYGTPWFGGGTKLEIK
B2: mouse monoclonal antibody 4C2 (IgG1) (antibody, V domains shown)
VH: DVKLVESGGGLVKPGGSLKLSCAASGFTFSSYTMSWVRQTPEKRLEWVATISSGGSYTYYPDSVKGRFTISRDNAKNTLYLQMSSLKSEDTAMYYCTRDGNDYDYWGQGTTLTVSS
VL: DIQMTQTTSSLSASLGDRVTISCRASQDISNYLNWYQQKPDGTVKLLIYYTSRLHSGVPSRFSGSGSGTDYSLTISNLEQEDIATYFCQQGNTLPRTFGGGTKLEIK
B3: humanized 4C2 (4C2h), full-length antibody (antibody, V domains shown)
VH: B2 VH with D1Q, K3Q, V5Q, E42D, T97A, T111M, L112V
VL: DIQLTQSPSSLSASIGDRVTITCQASQDISNYLNWYQQRPGQAPKLLIYYTSRLHSGVPSRFSGRGSGTSFTIAINSFQAEDIGTYFCQQGNTLPRTFGGGTRVEIK

Molecular target: MERS-CoV spike receptor-binding domain (spike residues 367-606), hexa-His tagged (MERS-CoV, isolate EMC/2012 (GenBank …))
Assay: SPR

Binder | Kd
B1 | 60.3 nM
B2 | 162 nM
B3 | ~217 nM
